Measurements from the DeepSol protein solubility set.

Assay: soluble on expression in E. coli; label from the status in PepcDB or PDB records

Sequence	soluble on expression in E. coli
MSKNRDPLLANLNAFKSKVKSAPVIAPAKVGQKKTNDTVITIDGNTRKRTASERAQENTLNSAKNPVLVDIKKEAGSNSSNAISLDDDDDDEDFGSSPSKKVRPGSIAAAALQANQTDISKSHDSSKLLWATEYIQKKGKPVLVNELLDYLSMKKDDKVIELLKKLDRIEFDPKKGTFKYLSTYDVHSPSELLKLLRSQVTFKGISCKDLKDGWPQCDETINQLEEDSKILVLRTKKDKTPRYVWYNSGGNLKCIDEEFVKMWENVQLPQFAELPRKLQDLGLKPASVDPATIKRQTKRVEVKKKRQRKGKITNTHMTGILKDYSHRV	soluble
MSNVLIINAMKEFAHSKGALNLTLTNVAADFLRESGHQVKITTVDQGYDIESEIENYLWADTIIYQMPAWWMGEPWILKKYIDEVFTDGHGRLYQSDGRTRSDATKGYGSGGLIQGKTYMLSVTWNAPREAFTDPEQFFHGVGVDGVYLPFHKANQFLGMKPLPTFMCNDVIKQPDIEGDIARYRQHLAENVNS	not soluble
MADPSFASGRLGSRLQGSIAMIAEELLRAGRLDDALKALQEQVRSQPSNATLRIFLFQLLAVMGQWARAQNQLKVVGELDASALPMVQTYSTAIDCEALRREVFAGRLTPVILGQPAEWIAPLLQALSLDAEGHGEAAQALREQAFDAAPAVPGRIGEAPFAWLADADTRLGPVLEVIVNGRYAWLPMSNLRSLKVEAPSDLRDLVWLPAELTLANGGATVALLPARYAETVEHGDDAARLGRKTEWLDSGLPVGQRLFVTDAGETALFDLRELDFEPTDA	not soluble
VLHAIEPLNLGPKPIFVHEQGLLVEWIDGITLTKDGIELEELLPIAATIHQYHSSSIPVVPFSYISRIDHYWLELEGKYVGSEFETLYKQWRSEPSVEQIPLALCHFDLGCYNLVRGDQGVKVIDWEYASLADPRLDL	not soluble
MRFERFVGIDPSLRTGFVALSPFGEVIEAKEIEKEGDDPARMSKLIQVVVDSVHDTDFVAIEGFGYASQRGFLLGGIGWGMRMELYRRGIPYIDVAPSLLKKFAGAKGNANKEKVVLEVYKRWGFESDSNNVIDAFVLAQIARAAKTETKLIQAQKEVLNKLFK	not soluble
MEDKATQTPEQTFSMEAALQETEARLEKRVRPGQILTGKVVLVGSEGVAVDIGAKTEGIIPFNQLTTKPLSEEELRNLLSPGDEVKVQVLRVDPETGQILLSRKKIEAQEKWDRIQELYEKGEPVTVTIKERVKGGVVAELDGVQGFMPASQLDLRRVPNLDEFVGQQVLAKIIEFHRRKGRVILSRRAVLEEEQKKAREAFLKSLEPGQVVEGTVVEVTDFGVFVNLGPVDGLVHRSEITWGRFNHPREVIQKGQKVKAQVLSVDPEKERVNLSIKALIPDPWTTVAEKYPVGTRVRGKVVGLTQFGAFVEVEPGLEGLIHISELSWTKRPKHPSEVVKEGDEVEAVVLRLDPEERRLSLGLKQTQPDPWQQLTEKYPPGTVLKGKVTGVTDFGVFVEIEPGIEGLVHVSELDHKRVENPAALFKKGDEMEVVVLNIDPVEQRVSLSRKRLLPPPLPQEEERPRRARSGKERARRKGAPRREDRREYEYGAVAEYNLYDASSVPTTTATVKLGDLYGDLLASLGLEEEAEEKSRG	soluble
MAGDPMERIESRRARTVRQMLNIRKITYLEKTRKGIEMNSKTIGIDIGGANTKLASSDGTIVELHYLPLWKNTMLPEVLKEISQRLKPENVAVVMTGELADCFEDKEQGIRFIKENVDSAFGSGKVSYINSQGRFRKENDPLRDLAAANWAASARLIGEEIGDCIFVDVGSTTSDIIPVISGEHRAGHTDFERLLRSELVYAGTLRTNLAALLEKVKLEKGICRTSSELFATTADAYLILGEINEDKYTCETADGVGRSKIEAMRRIARLVCADLSEVGETEVYEIAEQVKEKQVSALTEAISEVAERNRLEKIAAAGLGEFLISEAAERLGFECISVAGRWGEEISKVFPAYAAARLLDKYSELEHHHHHH	not soluble
KVIAGLYQRAFQHLSEAVQAAEEEAQPPSWSCGPAAGVIDAYMTLADFCDQQLRKEEENASVIDSAELQAYPALVVEKMLKALKLNSNEARLKFPRLLQIIERYPEETLSLMTKEISSVPCWQFISWISHMVALLDKDQAVAVQHSVEEITDNYPQAIVYPFIISSESYSFKDTSTGHKNKEFVARIKSKLDQGGVIQDFINALDQLSNPELLFKDWSNDVRAELAKTPVNKKNIEKMYERMYAALGDPKAPGLGAFRRKFIQTFGKEFDKHFGKGGSKLLRMKLSDFNDITNMLLLKMNKDSKPPGNLKECSPWMSDFKVEFLRNELEIPGQYDGRGKPLPEYHVRIAGFDERVTVMASLRRPKRIIIRGHDEREHPFLVKGGEDLRQDQRVEQLFQVMNGILAQDSACSQRALQLRTYSVVPMTSSDPRAPPCEYKDWLTKMSGKHDVGAYMLMYKGANRTETVTSFRKRESKVPADLLKRAFVRMSTSPEAFLALRSHFASSHALICISHWILGIGDRHLNNFMVAMETGGVIGIDFGHAFGSATQFLPVPELMPFRLTRQFINLMLPMKETGLMYSIMVHALRAFRSDPGLLTNTMDVFVKEPSFDWKNFEQKMLKKGGSWIQEINVAEKNWYPRQKICYAKRKLAGANPAVITCDELLLGHEKAPAFRDYVAVARGSKDHNIRAQEPESGLSEETQVKCLMDQATDPNILGRTWEGWEPWM	soluble
MLETETGRYSDTLRSALVSLDGDNAWALSESWCGTIQWICPSPYRPHHGRKNWFLGIGRFTADEQEQSDAIRYETLRSSGPGGQHVNKTDSAVRATHLASGISVKVQSERSQHANKRLARLLIAWKLEQQQQENSAALKSQRRMFHHQIERGNPRRTFTGMAFIEGLEHHHHHH	not soluble
MGSDKIHHHHHHMNMLLSEEQRDALQELMNISMGQAANSLARLIEAKITLSIPKISDVTPEQFVSMLSDQTMWYTRQSFLGSIKGEVISTLSKQGCDAIGKLMDYQPPLTQDRLNELLLELANILAGACLTGFAEQLSLNAKLSMPTMYSATSQHYHYRWASTLMMEVEFKVEVSQFDSKIVICLEEASVQTLLAKLQQLLE	not soluble
GAVGLTIRSNITYSKNEIVDRDEENNYYWYKMQKGHRVNQARGLISLGLFKDYDDIRNSPVQDFDGYKVMPGDIKYKDVNGDGKIDGNDQVAIGATTKPNLIYGFGIAANWKGLDVNLHFQGAGKSTYFIDGSTVHMFKLGDGWGNVLSEMANSNRWISADISGDPATENPNAEYPRLSYGPNSNNYQQSTYWLRNGSYLRLKTVEVGYTLPTQLVNKVHFNTVRIFFVGTNLLTWSAFKLWDPEMGSTDGKRYPLSKNLSLGISVNL	not soluble
MAAQVEIEDQESVTNLDNGEIINPISDNAPNFSGDATILLREATFEHNLIKNCFLSGMGSFATETTIVTVRKILTQRLITTKAKFAVFKLFTEAMKRKNNGYANIRYGWYSGSKEEIDRVITYGFSNREIKKVENDVGSHGVGIHLVHHRYSLAAALVGEGDEEGIKNILLCRVILGKPEQIVTGSKQSYPSSNQFDSGVDNLENPRKYVIWSCNMNSYILPTYIVSFKSHLLRGLIGRARSPCVSFSVLMSILSKSLDAARMNLILTSYDDFRKRKLRREQLVRKIREVVGDNLLFKILKNQRR	soluble
SSAKSAISKEIFAPLDERMLGAVQVKRRTKKKIPFLATGGQGEYLTYICLSVTNKKPTQASITKVKQFEGSTSFVRRSQWMLEQLRQVNGIDPNGDSAEFDLLFENAFDQWVASTASEKCTFFQILHHTCQRYLTDRKPEFINCQSKIMGGNSILHSAADSVTSAVQKASQALNERGERLGRAEEKTEDLKNSAQQFAETAHKLAMKHKC	soluble
MHIRTTTPVLTSLTSCNFGTASLGDTSPYCMALRPFPLGNTPLHAVIRRSAREFECVEAVPASNAVRSPSTASWVSAESLDSIISLANRTSEEMEVDQLIYRLCRSLYHVAKKKSAQIHCHPNHQERQQQQQQASSSGWRSVECEGHFSNMRGREDWCPLLHLFDPRSYYKVMGQPSQHDGCKLCGDVVGTESSPEGVSQWLMSELSVTRLTGGNSNHVYRLGHASFPKKAVLLRVYGDGGGGDVIDRARDIKVMRLMSKSEMGPGLLHTFHWGRVEEFMDGVLTCTTEKLLTSPSLLADVYGGLSKMHQLDYTPLLPENMRTKGMSNGHNSSQSVSDTVSKSGGGQEGPDGTVGGVNELESTCHTSFERVCLRLLRLVSLNVVEEHRHSLESWLAGEVMFVRRELQYRGIPVVLSHNDLNPGNILLSDGAGEASGTVFSDEELRVENTPLSKRYVTRKGKNMNLVERRGFLFIDFEYADANYRCFDLGNTLCELDYDYTRGTEAGGRGFIKYLFVFPPPAMEEAWRGLGEEYPRMPELIYDAWRRGVCDGSSDIGSVALLAVRRYFAERDNVPLETVELSEAQVGEVLLGMLASHLYWTIWSMTMGSAPDNCVECEDCDDQMFAVGGSGLDYMRYGECRLREYIALRGWLAEKGLLS	not soluble
MKAFDIMKASQIACCFEVGSFKPGNVHKNRDYDDIKYHHFISSGIAFGDVIHQACLEKNNIGNFIKKGVIESKKWSPTNANLGIIMLHMPIAIAASNLDKFSESALKKETEKIIKNTTVQDAIDVYRAIEIALAFVNAPENGPDLKSKDAKDELIEKNLTLYDVFKISSTWDSISNEWTENFKISYKGYNLIKEYYEKYNNINIAVTKTFINLLSNYPDTLIARKKGIDVSKMVSEKAKEVLNNFNEESVLEFDKFLSKEGNKLNPGTTADLIASSLLIFLLDRISNEKTILY	not soluble
MKYIVLLGDGMSDEPMQELGGKTPLQAARTPHMDAMARRGRIGLARTVPEGYPPGSDVANLSVFGYDPRACYTGRSPLEAASMGVELGSADVAFRVNLVNLAPTRGTLVMNDYSAGHISTAEGRELIEAIQGVMGTDEFQFYPGVGYRHLMVWRNGKCGMTVVPPHDISGQSILEHLPKGEGAERLIELMNSSQLVLNNHPQYRRRLEEGKVPANSIWLWGHGKAPRMASFHEKFGLTGAVISAVDLVRGIGVCAGLDVIKVEGATGYIDTNYEGKVTAALEALEAHDYVYLHVEAPDEAGHGGNLEHKLKAIEDFDARVVGPIMAGMEKFGSYRILCTPDHPTPLRLKTHTDAPVPFVLFSGETSENAGVAGYDEESARSAGLVVEDGFRLMEMMLDRLEHHHHHH	soluble
MGSDKIHHHHHHMKTGRNDPCPCGSAKKYKNCCMDAISKQNSALLDDISQVTAMNPNLTHDELDLVLQQKAFAQNNRPIADFCGLSPAQMANWLYAPFNELNCVAISPPDDLSSSPVMRYLEVILDEAMAQNGSFKATSKGNLPTKLVKQASGLLPEFAVAQFSTNISISEYAGSNEDKFNALHYTRILAELSGIIYRKSGSYHVKKAAQKQYQSQGLTAFFLPMLEAAITKYNWGYLDSWEHDAVLSTFWLFMLWRLQSHASVDELIDEVATAFPDLLHQFPADKYRTPQAQLGMGIDSRFLKRFLQFWGFITLDPKRLFAEPREPRKVQIQPLLTQTFKFTI	not soluble
MSLKQEKERILKLVEEGKLTAQEALTLIEKLDSDYKEKEEKITALSVHVHDEEEPFTTAKKESGKPSLGAKLFDWIDSAVKKVKEVDLDLNFGHAYDVQHIFQFKDTDFSSVELQIANGSVNIVPWEDDDIRAECQAKVYRADSQDAARHAFLQHIECEIKGNKFFIRTEKKTMKTNVTLYIPQKEYDKIRVKLFNGPVRGEHLHVKEFSAKTTNGVLSFSYLTAEKAIAETANGQIKLASHSCGTIEAETINGLIDLRGKSESIDVQSFNGNIAINVTESDCRSIYAKTTTGNVELAIPDDLAVKAELKSNLGTLSHELMDVEMLKEKNDTIQKEMMFTSNQAHDQNITVFSESLTGAIKLKYSQREGGSHHHHHH	soluble
IVGGRRARPHAWPFMVSLQLRGGHFCGATLIAPNFVMSAAHCVANVNVRAVRVVLGAHNLSRREPTRQVFAVQRIFENGYDPVNLLNDIVILQLNGSATINANVQVAQLPAQGRRLGNGVQCLAMGWGLLGRNRGIASVLQELNVTVVTSLCRRSNVCTLVRGRQAGVCFGDSGSPLVCNGLIHGIASFVRGGCASGLYPDAFAPVAQFVNWIDSIIQ	soluble
